The text below walks through data of patent publication US20240254222A1 (Bayer, published 2024).

Holding throughout (test): SPR, captured antibody, Sema3A domain analyte
Experiment [1] concerns the target T1, Rat Semaphorin3A-Sema Domain, TPP-19120 (rat, UniProt Q63548 21-569).
T1 construct: produced inhouse
T1 sequence: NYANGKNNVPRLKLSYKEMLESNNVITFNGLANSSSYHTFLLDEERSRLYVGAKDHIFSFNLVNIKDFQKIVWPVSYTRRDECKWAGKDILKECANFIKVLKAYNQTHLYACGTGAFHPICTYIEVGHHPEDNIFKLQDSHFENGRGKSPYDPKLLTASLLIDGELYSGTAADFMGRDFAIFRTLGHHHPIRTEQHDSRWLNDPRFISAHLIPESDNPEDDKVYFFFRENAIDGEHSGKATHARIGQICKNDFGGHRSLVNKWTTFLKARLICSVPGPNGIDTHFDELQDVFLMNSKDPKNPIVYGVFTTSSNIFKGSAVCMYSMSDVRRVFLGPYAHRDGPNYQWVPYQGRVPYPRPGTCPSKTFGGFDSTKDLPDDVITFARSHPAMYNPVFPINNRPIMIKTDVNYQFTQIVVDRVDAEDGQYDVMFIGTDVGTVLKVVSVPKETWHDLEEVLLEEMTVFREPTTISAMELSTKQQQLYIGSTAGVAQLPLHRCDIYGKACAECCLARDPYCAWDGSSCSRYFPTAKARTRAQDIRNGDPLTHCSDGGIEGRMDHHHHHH
A digest of the protocol:
(§1)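 Kinetics fitted to a 1:1 Langmuir model after double referencing; glycine pH 2.0 regeneration. Sema3A domain analytes (several species) ran at […]-3.125 nM multi-cycle or single 100 nM; Fc-tagged Sema3A at 1.56-200 nM over Fab-captured antibody, otherwise Fc capture. Buffer HBS P+ plus 300 mM NaCl, CaCl₂, MgCl₂, BSA, 25° C.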

In experiment [2] the target is T2, Dog Semaphorin3A-Sema Domain, TPP-19121 (dog, UniProt Q63548 21-569 (rat entry), limits assumed).
T2 construct: produced inhouse
T2 chain: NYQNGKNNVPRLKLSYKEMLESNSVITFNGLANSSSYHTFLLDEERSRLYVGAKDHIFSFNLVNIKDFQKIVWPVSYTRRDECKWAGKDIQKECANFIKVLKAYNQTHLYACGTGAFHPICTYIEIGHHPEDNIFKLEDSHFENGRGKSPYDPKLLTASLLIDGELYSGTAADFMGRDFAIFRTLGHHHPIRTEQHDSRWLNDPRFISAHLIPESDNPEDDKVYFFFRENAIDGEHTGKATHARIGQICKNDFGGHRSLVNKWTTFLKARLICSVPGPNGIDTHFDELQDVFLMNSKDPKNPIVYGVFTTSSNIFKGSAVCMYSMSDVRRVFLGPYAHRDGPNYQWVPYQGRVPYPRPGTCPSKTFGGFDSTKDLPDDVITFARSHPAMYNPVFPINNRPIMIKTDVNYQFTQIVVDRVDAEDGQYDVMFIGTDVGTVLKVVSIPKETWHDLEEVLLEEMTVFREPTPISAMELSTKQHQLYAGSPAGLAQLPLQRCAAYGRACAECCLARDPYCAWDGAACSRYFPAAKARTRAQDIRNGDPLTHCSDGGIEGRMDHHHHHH
In a few lines:
as §1

The target in experiment [3] is T3, Pig Semaphorin3A-Sema Domain, TPP-20176 (pig, UniProt Q63548 21-569 (rat entry)).
T3 construct: produced inhouse
T3 chain: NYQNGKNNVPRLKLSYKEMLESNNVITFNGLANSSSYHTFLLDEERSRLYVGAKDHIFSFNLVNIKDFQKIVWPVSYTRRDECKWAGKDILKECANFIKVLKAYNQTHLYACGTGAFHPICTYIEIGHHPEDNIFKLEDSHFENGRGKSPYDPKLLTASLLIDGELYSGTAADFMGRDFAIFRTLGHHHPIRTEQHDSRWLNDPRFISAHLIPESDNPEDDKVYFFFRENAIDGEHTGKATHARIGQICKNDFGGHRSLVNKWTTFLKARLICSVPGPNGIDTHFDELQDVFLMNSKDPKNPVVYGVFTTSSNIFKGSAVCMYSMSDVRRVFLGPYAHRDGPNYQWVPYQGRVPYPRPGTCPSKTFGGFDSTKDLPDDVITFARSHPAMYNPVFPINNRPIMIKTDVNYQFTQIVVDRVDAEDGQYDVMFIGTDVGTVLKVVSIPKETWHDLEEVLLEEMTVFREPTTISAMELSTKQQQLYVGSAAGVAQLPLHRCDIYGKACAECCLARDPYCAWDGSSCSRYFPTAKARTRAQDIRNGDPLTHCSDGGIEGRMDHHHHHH
A digest of the protocol:
as §1

B1: TPP-30792 (antibody, human IgG1, lambda, V domains shown)
V domain 1: EVQLLESGGGLVQPGGSLRLSCAASGFTFRSYAVHWVRQAPGKGLEWVSSTEGSGVGTSYTDSVKGRFTISRDNSKNTLYLQMNSLRAEDTAVYYCARMLGGGNPLDYLDYWGQGTLVTVSS
V domain 2: QSVLTQPPSASGTPGQRVTISCSGSSSNLGEGYDVHWYQQLPGKAPKLLIYYSDFRPSGVSDRFSGSKSGTSASLAISGLQSEDEADYYCAAWDDSLSSQVFGGGTQVTVLG
notes: IgG1; prior art, WO 2020/261281; also called 3H4 Univ Ramot; 3H4 (Ramot) Clon I
Consider B1, for which the binding result in experiment [1], in experiment [2] and in experiment [3] was “no binding” in each case.

B2: TPP-11489 (antibody, human IgG1, lambda)
heavy: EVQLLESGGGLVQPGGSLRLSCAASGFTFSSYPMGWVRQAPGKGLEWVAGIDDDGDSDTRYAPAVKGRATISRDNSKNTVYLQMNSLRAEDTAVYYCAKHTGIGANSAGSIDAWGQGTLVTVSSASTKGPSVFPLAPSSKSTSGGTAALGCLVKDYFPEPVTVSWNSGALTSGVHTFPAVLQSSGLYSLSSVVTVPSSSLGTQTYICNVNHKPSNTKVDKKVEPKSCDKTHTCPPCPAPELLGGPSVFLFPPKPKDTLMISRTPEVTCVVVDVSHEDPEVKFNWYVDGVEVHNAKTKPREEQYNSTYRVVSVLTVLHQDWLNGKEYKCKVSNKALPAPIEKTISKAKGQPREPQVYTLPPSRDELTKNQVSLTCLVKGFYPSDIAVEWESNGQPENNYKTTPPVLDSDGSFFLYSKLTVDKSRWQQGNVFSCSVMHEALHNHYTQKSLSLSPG
light: SYELTQPPSVSVSPGQTARITCSGGGSYTGSYYYGWYQQKPGQAPVTVIYYNNKRPSDIPERFSGSLSGTTNTLTISGVQAEDEADYYCGSADNSGDAFGTGTKVTVLGQPKAAPSVTLFPPSSEELQANKATLVCLISDFYPGAVTVAWKADSSPVKAGVETTTPSKQSNNKYAASSYLSLTPEQWKSHRSYSCQVTHEGSTVEKTVAPTECS
notes: human IgG1; also called Chiome; Chiome Prior Art (hIgG1)
One may read the Kd as the equilibrium constant for the complex coming apart. Lower therefore signals tighter binding. In the case of B2, the Kd was 33 nM in experiment [1], 50 nM in experiment [2] and 100 nM in experiment [3].

B3: TPP-15374 (antibody, human IgG1, lambda, V domains shown)
VH: EVQLLESGGGLVQPGGSLRLSCAASGFTFSSYEMNWVRQAPGKGLEWVSGISWNSGSIGYADSVKGRFTISRDNSKNTLYLQMNSLRAEDTAVYYCARSGYSSSWFDPDFDYWGQGTLVTVSS
VL: QSVLTQPPSASGTPGQRVTISCTGSSSNIGAGYDVHWYQQLPGTAPKLLIYGNSNRPSGVPDRFSGSKSGTSASLAISGLRSEDEADYYCSSYAGSNPYVVFGGGTKLTVLG
notes: human IgG1; also called IgG1, hit from panning; parental mAb
Consider B3, for which the equilibrium dissociation constant (Kd) in experiment [1] worked out at 9.8 nM; in experiment [2], 19 nM; in experiment [3], 7.2 nM.

B4: TPP-30791 (antibody, human IgG1, kappa, V domains shown)
VH: EVQLVESGGGLLQLGGSLRLSCAASGFTFSSYYMSWVRQAPGKGLEWVSTIIKSGGYAYYPDSVKDRFTISRDNSKNTLNLQMNSLRAEDTAVYYCVKGGQGAMDYWGQGTTVTVSS
VL: EIVLTQSPATLSLSPGERATLSCRASQSIGDYLHWYQQKPGQAPRLLIKYASQSISGIPARFSGSGSGTDFTLTISSLEPEDFAVYYCQQGYSFPYTFGGGTKLEIKR
notes: prior art, WO 2020/225400; also called BI clone IV; Böhringer (BI) Clone IV
For the molecule B4, the Kd in experiment [1] was 0.017 nM; in experiment [2], 0.078 nM; in experiment [3], 0.029 nM.
